Reference: publication PMC5028891 (Scientific Reports, 2016)

B1: unnamed (parent)
chain 1: MASMGLQVMGIALAVLGWLAVMLCCALPMWRVTAFIGSNIVTSQTIWEGLWMNCVVQSTGQMQCKVYDSLLALPQDLQAARALVIISIIVAALGVLLSVVGGKCTNCLEDESAKAKTMIVAGVVFLLAGLMVIVPVSWTAHNIIQDFYNPLVASGQKREMGASLYVGWAASGLLLLGGGLLCCNCPPRTDKPYSAKYSAARSAAASNYV
chain 2: RCVLTVPSTDIEKEILDLAAATERLNLTDALNSNPAGNLYDWRSSNSYPWTQKLNLHLTITATGQKYRILASKIVDFNIYSNNFNNLVKLEQSLGDGVKDHYVDISLDAGQYVLVMKANSSYSGNYPYSILFQKF

Variants of: B1
Assay: pull-down
Settings: with partner chain of the complex shown; n = 4; parent: 1; read off a plot
With chain 1 MASMGLQVMGIALAVLGWLAVMLCCALPMWRVTAFIGSNAVTSQTIWEGLWMNCVVQSTGQMQCKVYDSLLALPQDLQAARALVIISIIVAALGVLLSVVGGKCTNCLEDESAKAKTMIVAGVVFLLAGLMVIVPVSWTAHNIIQDFYNPLVASGQKREMGASLYVGWAASGLLLLGGGLLCCNCPPRTDKPYSAKYSAARSAAASNYV [chain 1 I40A] the ratio to parent was 1.1. chain 1 MASMGLQVMGIALAVLGWLAVMLCCALPMWRVTAFIGSNDVTSQTIWEGLWMNCVVQSTGQMQCKVYDSLLALPQDLQAARALVIISIIVAALGVLLSVVGGKCTNCLEDESAKAKTMIVAGVVFLLAGLMVIVPVSWTAHNIIQDFYNPLVASGQKREMGASLYVGWAASGLLLLGGGLLCCNCPPRTDKPYSAKYSAARSAAASNYV [chain 1 I40D] was tested, and the ratio to parent was 0.21.
